This note sets out measurements from patent US8198236B2, “Methods and compositions for the treatment of cancer” (Washington University, priority 2007, dated 2012).

Data set [1] has as its target T1, LRP6 (Homo sapiens, UniProt O75581).
T1 construct: expressed in transfected cells; host or cells: human HT1080 cells, retroviral vector pLNCX2
The data set is described as follows: Cell surface Myc-DKK1 binding and immunodetection on LRP6-transduced HT1080 cells. The following applies: 1 μM Mesd, immunofluorescence. From the text: Human DKK1 cDNA (clone MGC:868, IMAGE:3508222) was obtained from Invitrogen and subcloned into pcDNA3 (EcoRI/XbaI). To facilitate immunodetection, a c-Myc epitope was included at the C-terminus. The integrity of the subcloned DNA sequence was confirmed by DNA sequencing. Human DKK1-conditioned media were produced by transient transfection of HEK293 cells with pcDNADKK1-Myc in serum-free medium, and allowed to bind to LRP6-transduced HT1080 cells and control cells at room temperature for 60 minutes in the absence or presence of 1 μM Mesd. Cells were then fixed in 4% paraformaldehyde, labeled with anti-Myc monoclonal antibody and detected with Alexa-488 goat anti-mouse IgG. The immunofluorescence was detected by a laser-scanning confocal microscope (Olympus Fluoview 500).
RAP is a receptor antagonist for members of the LDLR family, and is able to inhibit the binding of most known ligands of the LDLR family members. DKK1 is an LRP6-specific ligand and antagonist. […] In these experiments, Serum-free conditioned medium was harvested from HEK293 cells transiently transfected with cDNA for human Myc-DKK1 and allowed to bind to LRP6-transduced HT1080 cells (B,C) and control cells (A) in the absence (A,B) or presence (C) of 1 μM Mesd. Cell-surface-bound Myc-tagged DKK proteins were fixed and detected by immunofluorescence staining with anti-Myc antibody. […]

Data set [2] in a line: Pharmacokinetics of 125I-labeled Mesd or Mesd peptide, intravenous or subcutaneous.
Procedure: In experiments shown in FIG. 23, pharmacokinetics of Mesd peptide and Mesd were examined. FIG. 23A: Amount of Mesd in serum following a single dose of protein administration. Mice were dosed at 5, 10, 20 mg/kg of Mesd via i.p. and the serum samples were collected from individual mice at the indicated time points. The levels of Mesd in serum were quantified by comparison to Mesd pure protein with known concentrations in Western blot analysis. Values are the average of triple determinations with S.D. indicated by error bars. […] Samples were obtained by terminal bleed under anesthesia at each of the indicated time points (N=3 animals per time point). Radioactivity was measured using a gamma counter and DPM converted to mass units/mL blood using the specific activity (DPM/mass) of each test substance. Data are plotted as mass U/mL of test substance with standard deviation indicated by error bars.
Data set [3] has as its target T2, LRP (Homo sapiens, UniProt Q07954).
T2 construct: U87 cells and SMC express abundant LRP; endogenous in cells; host or cells: U87 glioblastoma cells; human aortic smooth muscle cells
The data set is described as follows: 125I-Mesd binding to U87 cells and aortic smooth muscle cells expressing abundant LRP. The following applies: 125I-Mesd 5 nM, 4 hours at 4° C. The method, then:
Cells (2×10^5) were seeded into 12-well dishes 1 day prior to assay. Ligand-binding buffer (minimal Eagle's medium containing 0.6% BSA with a different concentration of radioligand, 0.6 ml/well) was added to cell monolayers, in the absence or the presence of 500 nM unlabeled RAP or 500 nM unlabeled Mesd, followed with incubation for 0-4 hours at 4° C. Thereafter, overlying buffer containing unbound ligand was removed, and cell monolayers were washed and lysed in low-SDS lysis buffer (62.5 mM Tris-HCl pH 6.8, 0.2% SDS, 10% v/glycerol) and counted.
To determine whether Mesd binds to other members of the LDLR family, ^125I-Mesd binding analysis was performed with four groups of cells expressing different members of the LDLR family (FIG. 2). In the first experiment, HEK293 cells were transiently transfected with cDNAs for the LDLR, LRP5, LRP6 or empty pcDNA3 vector. […]

T1 sequence (O75581 20-1613): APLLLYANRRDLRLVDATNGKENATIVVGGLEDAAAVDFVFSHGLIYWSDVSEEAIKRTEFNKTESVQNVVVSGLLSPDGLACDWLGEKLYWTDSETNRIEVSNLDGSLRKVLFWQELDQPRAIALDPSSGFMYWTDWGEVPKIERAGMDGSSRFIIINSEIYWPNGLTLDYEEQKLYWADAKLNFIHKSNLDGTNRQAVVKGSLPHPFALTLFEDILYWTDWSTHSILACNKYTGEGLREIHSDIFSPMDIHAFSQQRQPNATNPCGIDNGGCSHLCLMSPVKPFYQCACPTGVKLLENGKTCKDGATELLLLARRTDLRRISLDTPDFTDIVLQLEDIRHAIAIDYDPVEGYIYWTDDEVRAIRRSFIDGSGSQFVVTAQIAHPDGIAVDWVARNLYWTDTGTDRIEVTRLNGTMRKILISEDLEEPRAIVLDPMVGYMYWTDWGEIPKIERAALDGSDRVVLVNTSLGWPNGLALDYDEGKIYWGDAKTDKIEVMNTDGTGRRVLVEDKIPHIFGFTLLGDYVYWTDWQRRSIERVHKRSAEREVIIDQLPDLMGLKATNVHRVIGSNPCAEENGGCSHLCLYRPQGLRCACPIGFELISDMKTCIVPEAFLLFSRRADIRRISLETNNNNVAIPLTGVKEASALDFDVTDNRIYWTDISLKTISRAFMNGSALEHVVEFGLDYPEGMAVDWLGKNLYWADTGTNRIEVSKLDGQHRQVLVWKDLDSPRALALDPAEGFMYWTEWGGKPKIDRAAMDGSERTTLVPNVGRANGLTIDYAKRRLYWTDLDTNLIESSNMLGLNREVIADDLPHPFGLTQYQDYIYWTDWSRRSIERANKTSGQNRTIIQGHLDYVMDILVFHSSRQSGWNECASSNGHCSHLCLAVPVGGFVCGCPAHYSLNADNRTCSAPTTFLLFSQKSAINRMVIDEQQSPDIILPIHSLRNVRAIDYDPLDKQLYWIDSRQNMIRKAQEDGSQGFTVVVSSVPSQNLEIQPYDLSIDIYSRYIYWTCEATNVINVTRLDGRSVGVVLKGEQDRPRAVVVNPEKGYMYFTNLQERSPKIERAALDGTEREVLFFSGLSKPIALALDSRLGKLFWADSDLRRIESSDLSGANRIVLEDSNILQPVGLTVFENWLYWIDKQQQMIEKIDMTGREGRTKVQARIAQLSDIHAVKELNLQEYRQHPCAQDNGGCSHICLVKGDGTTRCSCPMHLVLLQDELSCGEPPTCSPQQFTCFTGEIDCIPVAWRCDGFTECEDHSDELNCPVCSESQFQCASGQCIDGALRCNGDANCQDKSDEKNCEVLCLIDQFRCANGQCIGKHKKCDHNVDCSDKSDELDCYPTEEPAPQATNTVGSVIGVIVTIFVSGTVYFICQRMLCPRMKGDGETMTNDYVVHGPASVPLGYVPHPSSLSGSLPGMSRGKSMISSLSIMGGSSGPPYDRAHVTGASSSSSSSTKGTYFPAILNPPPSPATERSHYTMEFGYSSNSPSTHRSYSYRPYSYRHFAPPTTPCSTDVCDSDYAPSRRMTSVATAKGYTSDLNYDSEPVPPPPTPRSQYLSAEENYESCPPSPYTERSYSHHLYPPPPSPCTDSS

B1: Mesd: Recombinant full-length mouse Mesd expressed in E. coli, N-terminal polyhistidine tail, lacking the signal peptide (protein)
chain: ADTPGEATPPPRKKKDIRDYNDADMARLLEQWEKDDDIEEGDLPEHKRPSAPIDFSKLDPGKPESILKMTKKGKTLMMFVTVSGNPTEKETEEITSLWQGSLFNANYDVQRFIVGSDRAIFMLRDGSYAWEIKDFLVSQDRCAEVTLEGQMYPGKGGGSKEKNKTKPEKAKKKEGDRKPRASKEDNRAGSRREDL
modifications: left off: small tags and cut ends
notes: Recombinant full-length mouse Mesd expressed in E. coli, N-terminal polyhistidine tail, lacking the signal peptide
Take B1: in data set [1], the “Binding of Myc-DKK1 to LRP6 at the cell surface” value is reported as “completely blocked”. The same molecule came in with a Bioavailability in data set [2] (intravenous (tail vein) or subcutaneous) of 60%. Further, in data set [2] (thyroid/parathyroid, liver, kidney, stomach, gastrointestinal tract), the Distribution into tissues entry is “rapid and widespread”. Also, the “Specific Mesd binding to U87 or SMC” value in data set [3] is recorded as “minimal”.
